Results on 5 molecules are retold here after article PMC5778458.

The term Kd denotes the free concentration of one partner at which half of the binding sites on the other are occupied at equilibrium, for simple one-to-one binding.

Like-named read-outs stand apart in the source and are kept apart here.

Assay in all cases: filter binding
For data set [1], the target named is T1, Cbf5p;Nop10p;Gar1p;Nhp2p (Saccharomyces cerevisiae;Saccharomyces …, UniProt P33322;Q6Q547;P28007;P32495 1-483;1-58;1-205;1-156, |||).
T1 sequence 1: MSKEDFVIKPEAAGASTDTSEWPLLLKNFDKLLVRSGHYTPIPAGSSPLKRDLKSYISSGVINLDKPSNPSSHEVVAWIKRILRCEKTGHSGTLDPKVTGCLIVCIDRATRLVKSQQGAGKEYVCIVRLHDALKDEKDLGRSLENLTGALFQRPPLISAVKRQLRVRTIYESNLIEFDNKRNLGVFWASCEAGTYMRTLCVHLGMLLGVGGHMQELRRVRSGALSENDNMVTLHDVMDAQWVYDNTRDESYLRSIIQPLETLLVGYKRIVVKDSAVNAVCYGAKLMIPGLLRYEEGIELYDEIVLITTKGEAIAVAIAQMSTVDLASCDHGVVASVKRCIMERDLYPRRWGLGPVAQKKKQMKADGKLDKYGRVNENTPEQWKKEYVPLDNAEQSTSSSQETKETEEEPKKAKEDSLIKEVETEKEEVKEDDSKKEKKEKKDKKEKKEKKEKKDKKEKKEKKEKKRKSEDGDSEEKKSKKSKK
T1 sequence 2: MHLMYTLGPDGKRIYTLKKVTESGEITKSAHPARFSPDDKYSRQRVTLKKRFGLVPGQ
T1 sequence 3: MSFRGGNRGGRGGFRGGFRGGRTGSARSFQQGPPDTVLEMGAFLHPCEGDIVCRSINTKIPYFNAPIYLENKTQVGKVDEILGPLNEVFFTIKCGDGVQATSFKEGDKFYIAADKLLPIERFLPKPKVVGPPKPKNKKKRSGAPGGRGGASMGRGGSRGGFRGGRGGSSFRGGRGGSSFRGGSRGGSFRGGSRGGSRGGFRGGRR
T1 sequence 4: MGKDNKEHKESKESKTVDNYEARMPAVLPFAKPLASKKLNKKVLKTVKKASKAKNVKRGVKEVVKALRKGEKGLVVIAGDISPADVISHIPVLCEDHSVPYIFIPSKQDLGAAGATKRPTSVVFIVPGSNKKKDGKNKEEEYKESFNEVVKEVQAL

Data set [2] deals with T1, Cbf5p;Nop10p;Gar1p;Nhp2p. This is another data set of the same source.
Another data set has as its target T2, Cbf5p;Nop10p;Gar1p (Saccharomyces cerevisiae;Saccharomyces …, UniProt P33322;Q6Q547;P28007 1-483;1-58;1-205, ||).
T2 sequence 1: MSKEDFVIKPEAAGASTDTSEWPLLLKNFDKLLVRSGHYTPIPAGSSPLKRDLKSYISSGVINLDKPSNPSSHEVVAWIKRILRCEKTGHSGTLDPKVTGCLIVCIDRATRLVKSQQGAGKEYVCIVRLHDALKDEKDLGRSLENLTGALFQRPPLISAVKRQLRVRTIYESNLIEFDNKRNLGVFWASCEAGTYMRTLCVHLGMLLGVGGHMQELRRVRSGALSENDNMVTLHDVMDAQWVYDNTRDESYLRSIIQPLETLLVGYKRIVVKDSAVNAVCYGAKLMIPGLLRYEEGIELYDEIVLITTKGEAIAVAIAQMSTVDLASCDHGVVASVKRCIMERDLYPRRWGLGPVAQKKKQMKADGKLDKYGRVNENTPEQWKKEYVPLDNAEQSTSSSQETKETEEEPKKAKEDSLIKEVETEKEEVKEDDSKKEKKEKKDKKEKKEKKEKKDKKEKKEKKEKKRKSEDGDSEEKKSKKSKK
T2 sequence 2: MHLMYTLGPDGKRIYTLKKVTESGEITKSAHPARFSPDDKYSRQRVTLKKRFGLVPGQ
T2 sequence 3: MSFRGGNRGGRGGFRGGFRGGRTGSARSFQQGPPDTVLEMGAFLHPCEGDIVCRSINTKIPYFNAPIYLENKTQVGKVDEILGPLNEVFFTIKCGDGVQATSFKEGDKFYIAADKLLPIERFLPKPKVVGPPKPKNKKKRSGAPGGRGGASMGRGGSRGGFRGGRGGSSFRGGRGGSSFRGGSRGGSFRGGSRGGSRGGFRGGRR

The target in data set [3] is T1, Cbf5p;Nop10p;Gar1p;Nhp2p. This is another data set of the same source.

On to GGGACGUCGGCUCUUCCUAUCAUACC (mixed) [snR34 delta Box H guide + 3' substrate RNA], for which the Kd with Cbf5p;Nop10p;Gar1p;Nhp2p [1] turned out to be 90 ± 30 nM.
For GGGACGUCGGCUCUUCCUAUCAUACC (mixed) [snR34 delta Box ACA guide + 3' substrate RNA], the Kd with Cbf5p;Nop10p;Gar1p;Nhp2p [1] came out at 150 ± 30 nM.
For GGGGACAACUGGCUUGUGGCAGCCA (mixed) [snR34 guide + 5' substrate RNA], the Kd is 53 ± 22 nM with Cbf5p;Nop10p;Gar1p;Nhp2p [2] and 50 ± 20 nM in the data set with Cbf5p;Nop10p;Gar1p.

B1: snR34 5' HP extended stem (structured_RNA)
RNA: GGGAAUCAAAAAUUUAUUUUUUACACGGAAACGAUGCCACAGUUGACUGAACCUGUCUUCUAACAGUAGUUAAUUGCCAGUAUUUCCGUGUAAACAAGA
For the molecule B1, the affinity with Cbf5p;Nop10p;Gar1p;Nhp2p [3], expressed as Kd, was 1.3 ± 0.5 nM.
Turning to GGGACGUCGGCUCUUCCUAUCAUACC (mixed) [snR34 guide + 3' substrate RNA], in the data set with Cbf5p;Nop10p;Gar1p, binding was put at a Kd of 90 ± 20 nM.
